Data taken from the Human Domainome abundance scans (Beltran et al. 2025).

B1: Ankyrin-3, residues 4094 to 4171; numbered along this chain, Q12955 (parent)
chain: MAIVADHLGLSWTELARELNFSVDEINQIRVENPNSLISQSFMLLKKWVTRDGKNATTDALTSVLTKINRIDIVTLLE

Variants of: B1
Assay: abundance fitness (aPCA) (normalised: wild type 0, dead -1); higher = more abundant; growth selection in yeast, the domain comes from the species named
Conditions: Homo sapiens

Abundance fitness: each site, then its substitutions
N33: F -0.082, R -0.148, Y -0.168, P -0.812, T -0.091, E 0.055, K -0.208
L37: C -0.15, P -0.089, D -0.254, Q -0.032, H -0.107, W -0.395, G -0.413, R -0.526, Y -0.141, A -0.095, E 0.026, M -0.014, K -0.169, V 0.048, T -0.03, N -0.359, F -0.231, S -0.132
S36: H -0.295, G -0.28, F -0.717, D 0.155, P -0.878, R -0.449, C -0.184, M -0.778, Q -0.336, K -0.626, N -0.044, E -0.172, A -0.609, V -0.952, L -0.933, T -0.297
R17: M -0.053, N 0.231, F -0.108, W -0.101, C -0.076, Y -0.061, H -0.182, K 0.143, G -0.163, V -0.161, L -0.06, Q -0.273, S -0.08, A -0.033, P -0.869, I -0.412, E -0.074, D -0.203, T -0.037
F21: V -0.81, P -0.708, D -0.949, Y -0.358, N -0.57, A -0.842, Q -0.694, W -0.978, H -0.842, I -0.665, T -0.869, C -1, S -0.893, G -0.7, E -0.997, M -0.561
R30: P -0.232, L -0.033, T -0.158, C -0.112, I 0.064, F -0.628, A -0.022, E -0.088, V -0.172, W -0.453, G -0.385, S -0.074, K -0.02, Q -0.188, Y -0.061, M 0.111
P34: T -0.366, H -0.268, V -1.11, Q -0.067, G -0.299, D -0.268, W -0.9, F -0.479, R -0.26, C -0.7, M -0.658, A -0.245, K -0.561, S -0.145, N -0.331, E -0.24, L -0.874
V31: L 0.087, M -0.191, A -0.07, C 0.049, P -0.929, S -0.006, E -0.139, D 0.058, Y 0.057, H 0.145, F -0.086, K 0.044, Q 0.003, G -0.089, R 0.041, W -0.165, T 0.026
Q28: I -0.479, A 0.044, D 0.044, M -0.179, T -0.223, Y -0.298, L -0.254, C -0.318, G -0.264, S -0.094, V -0.399, K -0.134, H -0.202, N -0.2, R -0.071, P -0.652, F -0.479, E 0.035, W -0.768
I38: C -0.038, D -0.286, A -0.02, E 0.15
V23: K -0.142, Q 0.16, S -0.061, L -0.048, T -0.023, F -0.142, G -0.004, H 0.02, A -0.12, P -0.034, E -0.04, N 0.097, D -0.335, C -0.22, I -0.073, W -0.049, Y -0.534, R -0.027
